Assay results reported in a protein production outcome set (Wang et al. 2014).

experiment: label from the status in PepcDB records

Row | Sequence | protein production
1 | MSLTGFWHDDFNNATPNDICVAIRSEAADAGIAQAIMQQLEEALKQLAQGSGSSQALTQVRRWDSACQKLPDANLALISVAGEYAAELANQALDRNLNVMMFSDNVTLEDEIQLKTRAREKGLLVMGPDCGTSMIAGTPLAFANVMPEGNIGVIGASGTGIQELCSQIALAGEGITHAIGLGGRDLSREVGGISALTALEMLSADEKSEVLAFVSKPPAEAVRLKIVNAMKATGKPTVALFLGYTPAVARDENVWFASSLDEAARLACLLSRVTARRNAIAPVSSGFICGLYTGGTLAAEAAGLLAGHLGVEADDTHQHGMMLDADSHQIIDLGDDFYTVGRPHPMIDPTLRNQLIADLGAKPQVRVLLLDVVIGFGATADPAASLVSAWQKACAARLDNQPLYAIATVTGTERDPQCRSQQIATLEDAGIAVVSSLPEATLLAAALIHPLSPAAQQHTPSLLENVAVINIGLRSFALELQSASKPVVHYQWSPVAGGNKKLARLLERLQGHPHHH | not failed
2 | MSLTKLYYEDQYIKEFKGEIIEVKEIDGKFHVLLDQTAFFPGGGGQMGDLGLIDGIKVLDVYEEEGKVYHVLEKEPKKLKNLQCELDWERRFDGMQQHLGQHLLSGCFYDLFGANTCGFHLGKEISTVDIVGFLDEKTIREAEKEANRLIFENLEVKSYAPSKKELKKVKTRRALPKTDEEIRIVEIVGLDLNACCGVHPRNTRDLQVIKIRRWEKHKNATRIEYVAGNRAVSEGHHHHHH | not failed
3 | MSLTLRVVPELYCFDINVSQSFFVDVLGFEVKYERPDEEFVYLTLDGVDVMLEGIAGKSRKWLSGDLEFPLGSGVNFQWDVIDIEPLYQRVNESAADSIYLALESKSYQCGDSIATQKQFMVQTPDGYLFRFCQDIHEGHHHHHH | not failed
4 | MSLTPTVMVVDESRITFLAVKNALEKDGFNVIWAKNEQEAFTFLRREKIDLVFVDVFEGEESLNLIRRIREEFPDTKVAVLSAYVDKDLIINSVKAGAVDYILKPFRLDYLLERVKKIISSTPRVTVSLRKNIEEGHHHHHH | not failed
5 | MSLTPYEPFRHLDQMRREFDRFFPDFPIDLPNRHLTLSPKMDVHETDHEVILECDIPGLESKEDLQIDVEPRSVRIEGRIKRSKEVHDERFYRREREIGHFRRVVPLPAEVAEDDIRAAYRNGVLEVRMRKRLDDRRRTIDVEFHLEHHHHHH | not failed
6 | MSLTRTQPVELVTMVMVTDPETQRVLVEDKVNVPWKAGHSFPGGHVEVGEPCATAAIREVFEETGLRLSGVTFCGTCEWFDDDRQHRKLGLLYRASNFTGTLKASAEGQLSWLPITALTRENSAASLPEFLQVFTGTASTLVSDSWNGNLRIDEGHHHHHH | not failed
7 | MSLTTMLEVAKRAGVSKATVSRVLSGNGYVSQETKDRVFQAVEESGYRPNLLARNLSAKSTQTLGLVVTNTLYHGIYFSELLFHAARMAEEKGRQLLLADGKHSAEEERQAIQYLLDLRCDAIMIYPRFLSVDEIDDIIDAHSQPIMVLNRRLRKNSSHSVWCDHKQTSFNAVAELINAGHQEIAFLTGSMDSPTSIERLAGYKDALAQHGIALNEKLIANGKWTPASGAEGVEMLLERGAKFSALVASNDDMAIGAMKALHERGVAVPEQVSVIGFDDIAIAPYTVPALSSVKIPVTEMIQEIIGRLIFMLDGGDFSPPKTFSGKLIRRDSLIAPSREGHHHHHH | not failed
8 | MSLTTSHFIPFPREMVWDWHTRKGAVARLTPPFIPLNPITQAERLADGTTIFSLPAGLKWVARHDLSGFLNGSRFTDVCLTAPVKALANWRHVHNFVDQDGGTLITDSVSTRLPASTLTGMFAYRQTQLIEDLKFLSRTSTLFDGSPLTVAITGSRGLVGRALTAQLQTGGHEVIQLVRKEPKPGKRFWDPLNPASDLLDGADVLVHLAGEPIFGRFNDSHKEAIRESRVLPTKFLAELVAESTQCTTMISASAVGFYGHDRGDEILTEESESGDDFLAEVCRDWEHATAPASDAGKRVAFIRTGVALSGRGGMLPLLKTLFSTGLGGKFGDGTSWFSWIAIDDLTDIYYRAIVDAQISGPINAVAPNPVSNADMTKILATSMHRPAFIQIPSLGPKILLGSQGAEELALASQRTAPAALENLSHTFRYTDIGAAIAHELGYEQLADFAQQQEIEAERKQERAELKAAKKIAKKAPVLEESPTNLEDPEEVEQSILSSILNFRRKRNDLEHHHHHH | not failed
9 | MSLVGKTLSGRYRVVRPLARGALARVYLAFDPFGTPYALKLFPPKARPRRDRELWVGRRLAHPNLNPVLEALDLEEGPALLLAYAPGEELGRWMGKSPAFSQAMRVFHQLLLALAHMHEKGLVHRDVKPENILVNAGEARLLDFDLSGPAQERFQKPLLLGTPAYLAPELLRGLPSGPEADVYAAGIILYWMLTGEHPFADPSGRVSLDPDRGPHPPVAGLGEEAALYLERLLAPDPKARFPTAQEALKAFPF | failed
10 | MSLVLMAQATKPEQLQQLQTTYPDWTFKDAAAVTAADYDQIEVMYGNHPLLKTILARPTNQLKFVQVISAGVDYLPLKALQAAGVVVANTSGIHADAISESVLAAMLSVVRGYHAAWLNQRGARQWALPMTTSTLTGQQLLIYGTGQIGQSLAAKASALGMHVIGVNTTGHPADHFHETVAFTATADALATANFIVNALPLTPTTHHLFSTELFQQTKQQPMLINIGRGPAVDTTALMTALDHHQLSMAALDVTEPEPLPTDHPLWQRDDVLITPHISGQIAHFRATVFPIFAANFAQFVKDGTLVRNQVDLNRGYEGHHHHHH | not failed
11 | MSLVMSGEKMKVIIVEDEFLAQQELSWLINTHSQMEIVGSFDDGLDVLKFLQHNKVDAIFLDINIPSLDGVLLAQNISQFAHKPFIVFITAWKEHAVEAFELEAFDYILKPYQESRIINMLQKLTTAWEQQNNAAEGHHHHHH | not failed
12 | MSLVVFLIAYVIRRRLDRADHLAGDEVWRNWFHRWGRVEAGQERSVWRGALLVVLPSLALAGAWALSSEAGYRYALYPLELVLMVVLMGAPGWRKVLRAYSDAWRRGDMQAAWHHVQERLPASERGAALSPEAMHLSVSRALMVSVFERFFLVVFWYAVGGIALAFLARGLVALAGQWPQAAARERYQRAARLIGWIPSRLLSCTFGLAGDLAGWSREIRKVFPGFGKKTADVLMISANGSLTGYALDPARFSELHPEEWPDFGGRSLSAIRDLLNRSMLVWICAFALLVIAGMA | failed
13 | MSLYEWLNALPKAELHLHLEGTLEPELLFALAERNRIALPWNDVETLRKAYAFNNLQEFLDLYYAGADVLRTEQDFYDLTWAYLQKCKAQNVVHVEPFFDPQTHTDRGIPFEVVLAGIRAALRDGEKLLGIRHGLILSFLRHLSEEQAQKTLDQALPFRDAFIAVGLDSSEVGHPPSKFQRVFDRARSEGFLTVAHAGEEGPPEYIWEALDLLKVERIDHGVRAFEDERLMRRLIDEQIPLTVCPLSNTKLCVFDDMSQHTILDMLERGVKVTVNSDDPAYFGGYVTENFHALQQSLGMTEEQARRLAQNSLDARLVKEGHHHHHH | not failed
14 | MSMATPSSAQRFNDRVAAYVRYRPSYPPQLLRWLHGELGVTPATAVADIGAGTGISSRLFLEAGYAVTAVEPNQAMREAALQWLAEFPKFQAIDGTAEATGLADASVGLVSAAQAFHWFDMQAVRDEWARILQPGGLAVVYWNSRELDSTAFLRGYEQLLLDYGTDYSAVAERYQDDATMQAWFGEGFRAMARFPNVQRLDFESLRGRLLSSSYAPLAHDPRHAPMLAALRTLFDAYAHDGLIDFQYQTRVFAGRLN | failed
15 | MSMNQFRTMEEEKQDGGELFHTIEVAKVDRNNVSQPPPAATAALLEVPGDELNLIPPLNFSMVDNGIFRSGFPDSANFSFIKTLGLRSIISLCPEPYPENNMQFLKSNGISLFQFGIEGSKSKEPFVDILDQKIREALKVLLDEKNHPLLIHCKRGKHRTGCLVGCMRKLQKWCITSILDEYKRFAAAKARVSDQRFLESFDVSGLKHTPMSFSCSNR | failed
16 | MSMVGAIILSIIIGIAAFFIHPLLYIGLALMGLIGWQRVRREREHFHTRVLRIRADYVVPFLPGLIAGSLLSLVTIVIGLTVSIDWLWLLLIVYLLTIVTMNIRWISPAYVGAFMIGVVLLAPFVTTGWPWFDERLQSASQIPVLVIMYLTVLLLSAEGMLIAKRGGSFSSPVVVRSKRGKWVGFHRVKRLWLLPVVLFIPEGAIPTFSFWPILTVAGVSLQPLVVPFLIGTDFKIWSSLPKVVSRKVGNQVLGLALTLALIVCITWYVPWLSVLFAIVAIVGREGIHLMAKIKDRSSTSLFTNQGTGCKVLGILPGSPAEKMGIKIGETILRVNGKMVNNEYSFYEALQENSAFCRLEVIDKAGEVRFAQGALYDGEHHQLGVLLVKEDRELQDSVI | failed
